The RNAGym collection of RNA variant scans (doi:10.1093/molbev/msab373)

B1: Azoarcus group I ribozyme (parent)
chain: GUGCCUUGCGCCGGGAAACCACGCAAGGGAUGGUGUCAAAUUCGGCGAAACCUAAGCGCCCGCCCGGGCGUAUGGCAACGCCGAGCCAAGCUUCGGCGCCUGCGCCGAUGAAGGUGUAGAGACUAGACGGCACCCACCUAAGGCAAACGCUAUGGUGAAGGCAUAGUCCAGGGAGUGGCGAAAGUCACACAAACCGG

Variants of: B1
Test: reverse-splicing fitness (ratio to wild type); higher = more active; in vitro selection; Mg2+ level not given
Procedure, shortened: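 An in vitro group I ribozyme library with randomized positions was T7-transcribed and gel-purified. In triplicate, 10 pmol RNA in EPPS pH 7.5 was reacted with 50 pmoles of a 30-nt RNA substrate for 1 h at 37 °C across several added MgCl2 levels (1–48 mM), then stopped with EDTA. Products were reverse transcribed from a substrate-complementary primer, PCR-amplified and sequenced (HiSeq 4000). Fitness is a variant's read proportion after selection over that before, normalised to wild type.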

Variant | reverse-splicing fitness
C82A A120C A145G C150U C169U | 0.019
C82A A120C A145G C150U C169A | 0.0108
C82A A120C A145U C150A C169A U176G | 0.00601
C82A A120C A145U C150A C169A U176A | 0.0198
C82A A120C A145U C150A C169A U176C | 0.0156
C82A A120C A145U C150A C169A | 0.0105
C82A A120C A145U C150A C169G | 0.00904
C82A A120C A145U C150A C169U | 0.00955
C82A A120C A145U C150U C169U U176C | 0.0137
C82A A120C A145U C150U C169U U176A | 0.0145
C82A A120C A145U C150U C169U U176G | 0.00474
C82A A120C A145G C150A C169U | 0.0123
C82A A120C A145G C150A C169G | 0.00977
C82A A120C A145G C150A C169A | 0.0111
C82A A120C A145U C150U U176G | 0.00864
C82A A120C A145U C150U U176C | 0.0422
C82A A120C A145U C150U U176A | 0.0269
C82A A120C A145G C150G C169A U176G | 0.00933
C82A A120C A145G C150G C169A U176A | 0.0141
C82A A120C A145G C150G C169A U176C | 0.0128
C82A A120C A145U C150U C169A | 0.00998

Variant | reverse-splicing fitness
C82A A120C A145U C150U C169G | 0.0103
C82A A120C A145U C150U C169U | 0.0159
C82A A120C A145G | 0.136
C82A A120C A145U | 0.135
C82A A120C A145C C150U U176C | 0.0227
C82A A120C A145C C150U U176A | 0.0172
C82A A120C A145C C150U U176G | 0.00635
C82A A120C A145G C169U U176C | 0.0162
C82A A120C A145G C169U U176A | 0.0173
C82A A120C A145G C169U U176G | 0.00469
C82A A120C C150A C169G U176C | 0.0258
C82A A120C C150A C169G U176A | 0.021
C82A A120C C150A C169G U176G | 0.00627
C82A A120C A145C C169G | 0.0102
C82A A120C A145C C169A | 0.00831
C82A A120C A145C C169U | 0.0188
C82A A120C A145G C150A C169A U176A | 0.0224
C82A A120C A145G C150A C169A U176C | 0.0248
C82A A120C A145G C150A C169A U176G | 0.00876
C82A A120C C150A C169A U176A | 0.0213
C82A A120C C150A C169A U176C | 0.0227

Variant | reverse-splicing fitness
C82A A120C C150A C169A U176G | 0.00801
C82A A120C C150A | 0.0224
C82A A120C A145C C150U C169A U176G | 0.00541
C82A A120C A145U C150U | 0.086
C82A A120C A145U C150A | 0.0195
C82A A120C A145U C150G | 0.0161
C82A A120C A145G C150A U176A | 0.0137
C82A A120C A145G C150A U176C | 0.03
C82A A120C A145G C150A U176G | 0.00982
C82A A120C A145G C169A U176C | 0.034
C82A A120C A145G C169A U176G | 0.00473
C82A A120C A145G C169A U176A | 0.0242
C82A A120C A145G C150G C169U | 0.0111
C82A A120C A145G C150G C169A | 0.01
C82A A120C A145G C150G C169G | 0.00868
C82A A120C A145U C150U C169A U176C | 0.0134
C82A A120C A145U C150U C169A U176G | 0.00539
C82A A120C A145U C150U C169A U176A | 0.0178
C82A A120C A145C C169G U176G | 0.00536
C82A A120C A145C C169G U176A | 0.031
C82A A120C A145C C169G U176C | 0.0239

Variant | reverse-splicing fitness
C82A A120C A145G C150U | 0.107
C82A A120C A145G C150A | 0.0245
C82A A120C A145G C150G | 0.0213
C82A A120C A145G C150U U176C | 0.0551
C82A A120C A145G C150U U176A | 0.0309
C82A A120C A145G C150U U176G | 0.0102
C82A A120C A145G U176A | 0.0426
C82A A120C A145G U176G | 0.00861
C82A A120C A145G U176C | 0.0683
C82A A120C A145G C150A C169G U176A | 0.0191
C82A A120C A145G C150A C169G U176G | 0.00638
C82A A120C A145G C150A C169G U176C | 0.0333
C82A A120C A145U C150U C169G U176G | 0.00507
C82A A120C A145U C150U C169G U176A | 0.0129
C82A A120C A145U C150U C169G U176C | 0.0198
C82A A120C A145G C150G U176G | 0.00716
C82A A120C A145G C150G U176C | 0.0148
C82A A120C A145G C150G U176A | 0.00881
C82A A120C A145C C150U C169U U176A | 0.0127
C82A A120C A145C C150U C169U U176G | 0.00452
C82A A120C A145C C150U C169U U176C | 0.00988
